From publication PMC5928113, “Properties of the ternary complex formed by yeast eIF4E, p20 and mRNA” (Scientific Reports, 2018)

Tests used:
[1] = molecular target: T1, eIF4E/p20 complex (eIF4E/His6x-p20) (Saccharomyces cerevisiae, UniProt P07260); experiment: microscale thermophoresis, RED-tris-NTA labelled protein; format: binding; details: read-out: Cap-analog / MST
T1 construct: gene CDC33; recombinant complex, untagged eIF4E (pET28a) co-expressed with His6x-p20 (pET3a, tag kept) in E. coli BL21 Rosetta 2 (DE3); with Cap-associated protein CAF20
T1 sequence (P07260 1-213): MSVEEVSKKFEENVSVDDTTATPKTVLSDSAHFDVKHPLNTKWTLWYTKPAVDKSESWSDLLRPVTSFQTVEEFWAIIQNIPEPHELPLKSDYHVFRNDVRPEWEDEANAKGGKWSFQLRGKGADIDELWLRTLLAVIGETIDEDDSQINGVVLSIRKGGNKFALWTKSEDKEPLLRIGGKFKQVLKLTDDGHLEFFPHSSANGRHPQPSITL
T1 sequence (P12962 1-161 partner): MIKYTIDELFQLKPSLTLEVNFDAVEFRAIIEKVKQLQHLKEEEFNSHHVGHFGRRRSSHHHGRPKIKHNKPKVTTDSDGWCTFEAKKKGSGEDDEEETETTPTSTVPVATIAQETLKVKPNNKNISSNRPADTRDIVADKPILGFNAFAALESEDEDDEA
Excerpt: microscale thermophoresis, RED-tris-NTA labelled protein on eIF4E/p20 complex (eIF4E/His6x-p20)

[2] = molecular target: T2, eIF4E (His6x-eIF4E) (Saccharomyces cerevisiae, UniProt P07260); experiment: as above; format: binding; details: read-out: Cap-analog / MST
T2 construct: gene CDC33; recombinant, N-terminal His6x tag kept, codon-optimized gene in pET3a, E. coli BL21 Rosetta 2 (DE3)
T2 sequence (P07260 1-213): T1 sequence (P07260 1-213)
Excerpt: microscale thermophoresis, RED-tris-NTA labelled protein on eIF4E (His6x-eIF4E)

[3] = molecular target: T3, His6x-eIF4E (Saccharomyces cerevisiae) (UniProt P07260); experiment: MST; details: 5' m7GpppG cap (Vaccinia Capping System), Buffer A: 10 mM sodium phosphate pH 7.5, 100 mM NaCl, 2.5 mM MgCl2, 1 mM DTT, 0.05% NP40, MST at 25 C (proteins for capped RNA MST RED-tris-NTA labeled in …)
T3 sequence: T1 sequence (P07260 1-213)

[4] = molecular target: T3, His6x-eIF4E (Saccharomyces cerevisiae); experiment: EMSA; details: 5' m7GpppG cap (Vaccinia Capping System); Buffer A: 10 mM sodium phosphate pH 7.5, 100 mM NaCl, 2.5 mM MgCl2, 1 mM DTT, 0.05% NP40; MST at 25 C (proteins for capped RNA MST RED-tris-NTA labeled in …)
[5] = molecular target: T4, His6x-eIF4E (Saccharomyces cerevisiae, UniProt P07260 1-213); experiment: MST; up to 96 uM protein; Buffer A: 10 mM sodium phosphate pH 7.5, 100 mM NaCl, 2.5 mM MgCl2, 1 mM DTT, 0.05% NP40; MST at 25 C (proteins for capped RNA MST RED-tris-NTA labeled in buffer B: 20 mM HEPES-KOH pH 7.5, 50 mM NaCl, 1 mM DTT); EMSA 1.5% agarose, 1x TBE, temperature not stated; details: protein: recombinant; tags: N-terminal His6x; label: 3' FAM
T4 sequence: T1 sequence (P07260 1-213)

Q: With `C[n+]1cn([C@@H]2O[C@H](COP(=O)(O)OP(=O)(O)OP(=O)(O)OC[C@H]3O[C@@H](n4cnc5c(=O)[nH]c(N)nc54)[C@H](O)[C@@H]3O)[C@@H](O)[C@H]2O)c2nc(N)[nH]c(=O)c21` [m^7GpppG] as the molecule, how does the Kd [1] read?
A: The Kd was 420 nM.

Q: What about the Kd [2] of the same molecule?
A: Its Kd is 425 nM.

Q: With “GGGAACAAAAGCUGGUAAUCAAGAAUUACAAGAAACAAAAAUUCAAGUAAAUAACAGAUAAUAC [capped SSA1 5'UTR RNA, 64 nt]” as the molecule, how does the Kd [3] read?
A: Its Kd is 226 nM.

Q: And the Kd ([3]; no peptide, control of the peptide experiment)?
A: Its Kd is 230 nM.

Q: And the Kd [4]?
A: Its Kd is 275 nM.

Q: Does GUAUUACAAGAAACAAAAAUUCAAGUAAAUAACAGAUAAU (ssRNA) [uncapped SSA1 5'UTR RNA, 40 nt] bind [5]?
A: Result: no binding
